Measured values published in PMC12772324.

Target: T1, HutC (Pseudomonas aeruginosa PAO1) (UniProt Q9HU78)
T1 sequence: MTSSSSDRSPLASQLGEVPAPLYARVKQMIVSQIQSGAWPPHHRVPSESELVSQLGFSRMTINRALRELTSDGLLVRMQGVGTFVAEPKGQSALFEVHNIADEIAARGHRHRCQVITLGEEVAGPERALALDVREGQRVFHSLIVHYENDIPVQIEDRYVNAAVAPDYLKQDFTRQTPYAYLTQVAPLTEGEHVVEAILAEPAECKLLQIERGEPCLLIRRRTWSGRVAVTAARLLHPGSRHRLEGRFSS
Test: EMSA
Details: 10 mM Tris-HCl pH 7.5, 100 mM NaCl, 1 mM DTT, 3 ng/uL sheared salmon sperm DNA, 1% glycerol, 2 ng/uL probe, 20 min at room temperature; 6% native gel, 0.5x TBE

## ACGGCGGCCTGAGCCGCCGGCCAATAACAATGATCGAGGCCGTTCCCCCGGGCGCGGCCCGCAGGTTTTCCAACTGCCTTTCCCAATCGTGCATCTGGAGCGTCGAACC (double strand) [hutG -108 to -1]
  binding: binds
